Laboratory results as given in patent publication US20220213211A1 (Memorial Sloan Kettering, published 2022).

Target: T1, biotinylated recombinant CD371 (soluble CD371) (Homo sapiens (Human), UniProt Q5QGZ9 65-265, biotinylated (site not stated))
T1 sequence: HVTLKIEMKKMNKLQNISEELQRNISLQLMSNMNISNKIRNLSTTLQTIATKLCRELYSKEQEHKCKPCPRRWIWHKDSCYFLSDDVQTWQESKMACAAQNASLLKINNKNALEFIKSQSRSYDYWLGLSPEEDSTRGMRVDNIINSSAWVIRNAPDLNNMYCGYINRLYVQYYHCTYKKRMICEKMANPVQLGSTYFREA
Assay: biotinylated CD371 captured with streptavidin, soluble scFv as analyte
Description: For scFv affinity measurements, biotinylated CD371 was captured with streptavidin, and soluble scFv was used as analyte. […] Consistent with the flow cytometry results, weak binding of the 1B10 scFv in the VH-VL orientation was observed but a dissociation constant could not be calculated by any curve fit method.

Kd: 16 nM | koff: 0.00952 s⁻¹ | kon: 599000 M⁻¹ s⁻¹
B1: B10 scFv in the VL-VH orientation (scFv)
scFv: DIVMTQSPDSLAVSLGERATINCKSSQSVLDSYNNENNLAWYQQKPGQPPKLLIYWASTRESGVPDRFSGSGSGTDFTLTISSLQAEDVAVYYCQQYTSEPITFGQGTKVEIKGGGGSGGGGSGGGSGGGGSEVQLLESGGGLVQPGGSLRLSCAASGFTFSDYQMSWVRQAPGKGLEWVSGIQGGGGSTYYADSVKGRFTISRDNSKNTLYLQMNSLRAEDTAVYYCAREMWRGDYYSGMDVWGQGTTVTVSS
notes: also called 1B10 scFv VL-VH; VL-VH scFv
